Measured values taken from patent publication US20260207757A1.

Legend:
[1] = biological target: type 1 IGF receptor (IGF-1R) (human) (UniProt P08069); experiment: displacement of 125I-IGF-1 from MCF7 cells, 4 C overnight
[2] = biological target: type 1 IGF receptor (IGF-1R) (human) (UniProt P08069); experiment: competition binding to IGF receptors against radioactive wild type IGF

Chain of type 1 IGF receptor (IGF-1R) (human) (P08069 31-1367): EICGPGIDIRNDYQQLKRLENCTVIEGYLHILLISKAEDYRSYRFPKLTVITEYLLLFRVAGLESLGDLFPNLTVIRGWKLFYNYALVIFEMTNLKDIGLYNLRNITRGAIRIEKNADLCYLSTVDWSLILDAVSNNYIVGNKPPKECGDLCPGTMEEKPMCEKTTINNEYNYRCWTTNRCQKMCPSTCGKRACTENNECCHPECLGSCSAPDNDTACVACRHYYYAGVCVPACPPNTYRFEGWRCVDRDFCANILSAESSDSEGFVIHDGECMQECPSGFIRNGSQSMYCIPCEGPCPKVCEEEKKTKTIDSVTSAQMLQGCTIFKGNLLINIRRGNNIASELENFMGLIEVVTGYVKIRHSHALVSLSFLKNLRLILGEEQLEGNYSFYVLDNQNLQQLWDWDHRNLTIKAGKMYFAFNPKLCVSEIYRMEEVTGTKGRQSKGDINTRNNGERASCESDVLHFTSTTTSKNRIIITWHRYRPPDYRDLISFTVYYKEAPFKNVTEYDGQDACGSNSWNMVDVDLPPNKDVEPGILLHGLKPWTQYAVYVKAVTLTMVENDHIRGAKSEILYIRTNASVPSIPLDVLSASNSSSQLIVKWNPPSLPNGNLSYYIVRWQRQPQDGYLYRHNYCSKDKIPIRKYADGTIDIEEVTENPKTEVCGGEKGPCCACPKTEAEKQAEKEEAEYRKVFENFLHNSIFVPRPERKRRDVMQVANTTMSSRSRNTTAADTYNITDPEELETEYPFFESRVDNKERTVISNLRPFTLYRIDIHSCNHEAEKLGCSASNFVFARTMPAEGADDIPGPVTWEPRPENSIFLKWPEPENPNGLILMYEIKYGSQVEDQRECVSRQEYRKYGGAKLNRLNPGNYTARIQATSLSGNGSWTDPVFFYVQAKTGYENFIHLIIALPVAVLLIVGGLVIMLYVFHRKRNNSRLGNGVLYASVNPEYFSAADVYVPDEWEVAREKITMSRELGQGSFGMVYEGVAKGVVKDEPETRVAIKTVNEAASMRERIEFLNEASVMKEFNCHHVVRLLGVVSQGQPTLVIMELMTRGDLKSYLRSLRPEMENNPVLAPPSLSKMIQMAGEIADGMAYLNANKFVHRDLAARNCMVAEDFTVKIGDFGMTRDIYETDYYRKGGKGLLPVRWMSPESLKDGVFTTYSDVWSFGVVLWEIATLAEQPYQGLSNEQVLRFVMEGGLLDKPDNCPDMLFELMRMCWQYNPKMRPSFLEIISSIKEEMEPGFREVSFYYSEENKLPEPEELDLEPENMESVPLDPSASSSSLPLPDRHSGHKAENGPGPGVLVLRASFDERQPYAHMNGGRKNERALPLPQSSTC

long-R3-IGF (ligand)
Kd [1]: 3 nM | Kd [2]: 1 nM
